Data on one substance can be found in publication doi:10.1101/2025.09.22.677689.

This test concerns the target preformed TPX2-NLS - importin α ΔIBB complex (mouse) (UniProt A2APB8). Kind of test: pull-down; competition: GST-TPX2 NLS on magnetic glutathione beads first incubated with importin α ΔIBB, washed, then increasing concentrations of CFDP1 proteins in transfer buffer, 1 h at 4°C; SDS-PAGE with Coomassie stain or immunoblot. (Immunoblotting shows a protein as a band on a membrane.)

In turn, “CFDP1 basic C-terminal fragment (aa 150-295), HIS tagged (from UniProt O88271 150-295) (domain or fragment)” yielded a percent decrease of TPX2 bound importin α of 11%.
